Source: the supplement of paper PMC10567573

B1: KLHL12 (parent)
chain: REESLPNLLQYVRMPLLTPRYITD

Variants of: B1
Assay: protein stability index of a GFP-peptide fusion (GPS, HEK-293T) (PSI 1-6); higher = more stable
Details: c terminus: a fixed tail appended
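Also: lentivirally expressed fusions sorted by FACS into six bins by GFP to DsRed ratio, PSI derived from sequencing read proportions per bin multiplied by bin number.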

Protein stability index, by site and new letter:
L16: P 2.77, S 3.56, N 2.77, Q 3.12, E 3.04, D 2.69, M 2.46, G 2.84, H 3.18, W 1.6, Y 2.98, I 2.45, R 3.25, V 3.03, F 2.27, C 2.41, A 2.56, T 2.75, K 2.93
R13: A 1.49, W 2.84, M 2.07, C 3.21, V 2.66, G 1.76, D 2.48, L 3.6, H 2.38, N 2.58, E 2.84, Q 2.31, T 1.64, Y 2.53, F 2.06, K 2.67, S 1.52, P 2.97
V12: R 3, Y 2.6, K 2.81, C 1.98, D 3.7, I 2.77, S 3.16, P 3.45, M 2.33, F 1.86, H 2.74, Q 3.07, W 1.81, L 1.86, N 3.1, E 3.85, G 2.91, A 3.16, T 3.01
L5: M 2.9, Y 2.61, Q 2.81, I 1.83, T 2.79, V 2.59, W 2.21, C 2.79, E 3.4, S 2.8, K 2.65, P 2.75, G 2.67, A 3.47, F 2.16, H 2.51, N 2.52, D 3.15, R 2.52
R20: G 3.29, V 1.92, M 1.97, F 1.95, D 3.03, A 2.19, T 2.15, N 2.78, I 2.68, E 2.7, L 2.55, W 1.22, K 3.48, S 2.72, C 2.12, P 2.21, Q 2.54, H 2.56
L9: V 2.51, S 3.36, D 3.1, T 3.45, R 3.14, A 2.97, H 3.29, N 3.61, M 2.44, E 3.23, K 2.57, G 3.03, W 2.49, I 2.32, Y 2.62, C 3.33, P 3.07, Q 3.77, F 2.27
P6: W 2.11, H 2.13, S 2.31, K 1.71, M 2.11, D 2.51, R 2.59, N 2.45, Y 2.58, C 2.05, Q 1.91, V 1.6, T 2.13, I 1.95, L 2, E 2.15, A 2.66, G 2.28, F 1.93
N7: K 2.73, M 2.03, R 2.3, E 2.34, H 2.44, T 2.1, I 1.9, C 2.35, G 2.63, L 2.01, Y 1.71, D 2.93, S 2.26, V 2.07, P 3.19, Q 2.65, A 2.64, W 3.17, F 2.23
S4: D 2.56, A 2.65, M 2.21, F 2.15, L 1.89, N 1.93, E 2.72, Q 2.51, C 2.71, R 2.5, I 2.16, T 2.34, H 2.51, K 2.41, P 2.79, G 2.69, Y 2.45, W 1.9, V 1.82
L8: V 2.53, P 3.18, M 2.69, D 3.75, K 2.98, W 2.12, E 3, A 3.24, F 2.4, I 2.41, T 3.12, R 2.98, Q 3.17, G 2.79, N 3.22, S 3.21, C 2.29, Y 2.67, H 3.27
E3: P 2.19, M 1.9, N 2.42, Y 1.71, L 2.11, S 2.14, V 2.45, K 2.78, R 2.83, I 2.02, W 2.02, T 2.67, H 2.23, Q 2.72, G 2.56
P15: H 2.65, E 2.54, Q 2.45, F 2.24, G 3.67, Y 4.19, V 2.34, R 1.69, I 3.9, T 2.65, K 1.57, M 2.48, S 3.06, W 2, N 2.42, A 1.58, L 4.9, D 2.01
Q10: T 2.28, Y 2.16, P 2.79, I 4.07, D 2.06, G 2.45, E 2.41, A 2.47, M 1.56, S 2.33, L 2.27, W 1.17, R 3.13, K 2.38, N 2.05, C 2.39, H 2.25, F 2.22
P19: C 2.28, S 2.14, Y 1.4, R 2.39, A 2.74, T 2.46, W 2.41, G 2.75, I 2.12, K 2.41, N 2.48, V 2.22, L 2.48, M 2.02, D 2.9, E 3.03, F 2.17, H 1.47, Q 2.18
L17: H 2.83, F 2.16, Y 2.98, R 3.48, D 3.43, E 3.45, V 3.56, P 2.54, N 3.42, W 2.33, T 2.54, C 2.85, K 3.51, Q 2.86, A 3.51, G 2.77, S 2.87, I 2.54, M 2.63
M14: V 2.87, T 2.97, P 3.36, C 2.02, W 2.13, Y 2.58, L 2.35, R 2.68, E 3.52, A 2.42, N 2.4, G 3.11, D 3.17, Q 2.88, F 2.09, S 3.13, K 3.46, H 2.89, I 2.56
T18: A 2.36, Q 2.5, V 1.97, S 2.27, E 2.87, Y 1.95, R 2.67, C 1.96, K 2.19, P 2.29, W 1.55, I 2.17, L 2.42, F 2.46, H 2.52, G 3.92, N 1.7, M 1.81, D 2.38
Y11: T 3.06, S 3.33, V 2.51, K 2.87, P 3.56, H 2.88, W 1.96, G 3.52, C 2.82, E 3.9, L 2.09, A 2.76, M 2.34, N 3.47, F 2.92, Q 3.42, D 3.96, R 3.21, I 2.68
